Assay results from patent US20240216509A1.

Target: PD-L1 CAR (2nd generation CAR, PDL1-CD28-CD3ζ) expressed on NK-92 cells (human) (UniProt P01732)
Experiment: cell-based or functional assay

Chain of UniProt P01732 (P01732 other isoform, or with tags, fused parts or gaps limits assumed): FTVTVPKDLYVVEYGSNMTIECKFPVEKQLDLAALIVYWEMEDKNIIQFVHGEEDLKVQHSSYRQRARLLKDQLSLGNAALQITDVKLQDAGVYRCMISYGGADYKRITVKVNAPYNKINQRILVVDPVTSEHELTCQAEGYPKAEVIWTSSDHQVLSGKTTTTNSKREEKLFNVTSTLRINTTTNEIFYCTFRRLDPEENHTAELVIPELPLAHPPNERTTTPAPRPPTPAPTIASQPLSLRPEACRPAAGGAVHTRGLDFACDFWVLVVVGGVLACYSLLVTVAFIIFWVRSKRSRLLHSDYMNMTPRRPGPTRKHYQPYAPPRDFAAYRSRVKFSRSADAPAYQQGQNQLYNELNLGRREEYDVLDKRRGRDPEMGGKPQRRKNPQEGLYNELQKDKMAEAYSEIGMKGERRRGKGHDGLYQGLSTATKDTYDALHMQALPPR

EC50 of degranulation of CAR NK-92 over increasing concentrations of plate-bound rhPD-1-Fc: 0.61 µg/mL
Substance: recombinant human PD-1-Fc fusion protein (rhPD-1-Fc) (from UniProt Q15116 25-167)
